Where a chain is given by its changes, count along the chain named. “And” between values parts separate entries of the source, which are not always exact repeats. Identical values can stand only once. Like-named read-outs stand apart in the source and are kept apart here.
T1: human CD73 on cells (human, UniProt P21589 27-549)
T1 sequence (looked up): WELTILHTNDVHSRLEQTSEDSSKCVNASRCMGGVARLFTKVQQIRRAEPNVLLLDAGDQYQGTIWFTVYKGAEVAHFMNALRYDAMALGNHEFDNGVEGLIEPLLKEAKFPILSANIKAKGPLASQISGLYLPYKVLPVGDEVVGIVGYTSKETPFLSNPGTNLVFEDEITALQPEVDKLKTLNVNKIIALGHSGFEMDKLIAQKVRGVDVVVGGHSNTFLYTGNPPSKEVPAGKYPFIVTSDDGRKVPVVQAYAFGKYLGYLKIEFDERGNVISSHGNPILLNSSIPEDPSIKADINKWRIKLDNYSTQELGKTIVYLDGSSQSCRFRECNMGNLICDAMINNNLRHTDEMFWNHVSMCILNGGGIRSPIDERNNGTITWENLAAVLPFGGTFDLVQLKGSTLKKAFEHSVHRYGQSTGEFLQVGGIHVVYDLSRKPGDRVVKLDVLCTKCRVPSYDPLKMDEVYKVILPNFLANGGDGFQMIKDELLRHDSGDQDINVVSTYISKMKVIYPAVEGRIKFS

T2: hCD73-his (human, UniProt P21589 26-546)
T2 construct: range 26-546; also called full length extracellular domain of human-CD73
T2 sequence (looked up): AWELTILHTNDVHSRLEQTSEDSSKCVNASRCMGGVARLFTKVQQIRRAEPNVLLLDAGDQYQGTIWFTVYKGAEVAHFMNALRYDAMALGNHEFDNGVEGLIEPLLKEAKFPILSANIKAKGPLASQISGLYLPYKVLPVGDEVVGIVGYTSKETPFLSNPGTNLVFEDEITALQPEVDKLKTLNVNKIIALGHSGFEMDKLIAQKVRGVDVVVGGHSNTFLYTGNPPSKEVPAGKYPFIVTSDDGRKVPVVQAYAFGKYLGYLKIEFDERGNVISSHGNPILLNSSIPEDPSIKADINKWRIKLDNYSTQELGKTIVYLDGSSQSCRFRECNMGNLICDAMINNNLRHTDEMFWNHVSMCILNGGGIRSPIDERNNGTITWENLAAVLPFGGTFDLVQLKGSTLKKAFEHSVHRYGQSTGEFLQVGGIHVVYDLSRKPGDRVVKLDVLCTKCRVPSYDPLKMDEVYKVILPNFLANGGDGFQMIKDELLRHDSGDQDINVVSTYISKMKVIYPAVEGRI

T3: N-hCD73-his (human, UniProt P21589 26-336, limits assumed)
T3 construct: monomeric in solution by SEC-MALS; also called N-terminal domain of hCD73
T3 sequence (looked up): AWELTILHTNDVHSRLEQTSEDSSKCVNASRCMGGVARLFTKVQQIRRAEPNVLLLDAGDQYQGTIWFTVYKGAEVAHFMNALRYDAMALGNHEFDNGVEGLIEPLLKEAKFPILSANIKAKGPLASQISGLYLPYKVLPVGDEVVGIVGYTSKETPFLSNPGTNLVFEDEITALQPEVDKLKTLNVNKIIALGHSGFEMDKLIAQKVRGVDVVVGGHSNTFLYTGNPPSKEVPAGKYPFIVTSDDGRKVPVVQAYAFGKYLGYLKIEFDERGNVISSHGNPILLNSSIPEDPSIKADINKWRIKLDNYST

B1: CD73.4-IgG2.5G1-KH (antibody)
heavy: QVQLVESGGGVVQPGRSLRLSCAASGFTFSNYGMHWVRQAPGKGLEWVAVILYDGSNKYYPDSVKGRFTISRDNSKNTLYLQMNSLRAEDTAVYYCARGGSSWYPDSFDIWGQGTMVTVSSASTKGPSVFPLAPSSRSTSESTAALGCLVKDYFPEPVTVSWNSGALTSGVHTFPAVLQSSGLYSLSSVVTVPSSNFGTQTYTCNVDHKPSNTKVDKTVERKCCVECPPCPAPPVAGPSVFLFPPKPKDTLMISRTPEVTCVVVDVSHEDPEVKFNWYVDGVEVHNAKTKPREEQYNSTYRVVSVLTVLHQDWLNGKEYKCKVSNKALPAPIEKTISKAKGQPREPQVYTLPPSREEMTKNQVSLTCLVKGFYPSDIAVEWESNGQPENNYKTTPPVLDSDGSFFLYSKLTVDKSRWQQGNVFSCSVMHEALHNHYTQKSLSLSPGK
light: not shown
notes: also called mAb-CD73.4-IgG2.5G1-KH; CD73.4-Vh-hHC-IgG2.5G1-KH
B2: CD73.4-IgG2.3G1-KH (antibody)
heavy: B1 heavy with S135C, C223S
light: not shown
notes: also called mAb-CD73.4-IgG2.3G1-KH; CD73.4-Vh-hHC-IgG2.3G1-KH
B3: CD73.4-IgG2.5 (antibody)
heavy: B1 heavy with K274Q, Y296F, Y300F, L309V, A327G, A339T, V397M
light: not shown
notes: also called mAb-CD73.4-IgG2.5; CD73.4-Vh-hHC-IgG2.5
B4: CD73.4-IgG2.5G1.1f-KH (antibody)
heavy: B1 heavy with A330S, P331S
light: not shown
notes: also called mAb-CD73.4-IgG2.5G1.1f-KH; CD73.4-Vh-hHC-IgG2.5G1.1f-KH
B5: CD73.4-IgG2.3-plusTHT (antibody)
heavy: QVQLVESGGGVVQPGRSLRLSCAASGFTFSNYGMHWVRQAPGKGLEWVAVILYDGSNKYYPDSVKGRFTISRDNSKNTLYLQMNSLRAEDTAVYYCARGGSSWYPDSFDIWGQGTMVTVSSASTKGPSVFPLAPCSRSTSESTAALGCLVKDYFPEPVTVSWNSGALTSGVHTFPAVLQSSGLYSLSSVVTVPSSNFGTQTYTCNVDHKPSNTKVDKTVERKSCVETHTCPPCPAPPVAGPSVFLFPPKPKDTLMISRTPEVTCVVVDVSHEDPEVQFNWYVDGVEVHNAKTKPREEQFNSTFRVVSVLTVVHQDWLNGKEYKCKVSNKGLPAPIEKTISKTKGQPREPQVYTLPPSREEMTKNQVSLTCLVKGFYPSDIAVEWESNGQPENNYKTTPPMLDSDGSFFLYSKLTVDKSRWQQGNVFSCSVMHEALHNHYTQKSLSLSPGK
light: not shown
notes: also called mAb-CD73.4-IgG2.3-plusTHT; CD73.4-Vh-hHC-IgG2.3-plusTHT
B6: CD73.4-IgG2.5-plusTHT (antibody)
heavy: B5 heavy with C135S, S223C
light: not shown
notes: also called mAb-CD73.4-IgG2.5plusTHT/LC; CD73.4-Vh-hHC-IgG2.5plusTHT/LC
B7: CD73.4-IgG2.3-plusGGG (antibody)
heavy: B5 heavy with T227G, H228G, T229G
light: not shown
notes: also called mAb-CD73.4-IgG2.3-plusGGG; CD73.4-Vh-hHC-IgG2.3-plusGGG
B8: 11F11 (antibody, human IgG2, kappa, V domains shown)
VH: QVQLVESGGGVVQPGRSLRLSCATSGFTFSNYGMHWVRQAPGKGLEWVAVILYDGSNKYYPDSVKGRFTISRDNSKNTLYLQMNSLRAEDTAVYYCARGGSSWYPDSFDIWGQGTMVTVSS
VL: DIQMTQSPSSLSASVGDRVTITCRASQGISSWLAWYQQKPEKAPKSLIYAASSLQSGVPSRFSGSGSGTDFTLTISSLQPEDFATYYCQQYNSYPLTFGGGTKVEIKR
notes: hybridoma derived anti-CD73 antibody, IgG2 constant region; also called 11F11 (IgG2)
B9: CD73.4-IgG2-C219S (antibody)
heavy: QVQLVESGGGVVQPGRSLRLSCAASGFTFSNYGMHWVRQAPGKGLEWVAVILYDGSNKYYPDSVKGRFTISRDNSKNTLYLQMNSLRAEDTAVYYCARGGSSWYPDSFDIWGQGTMVTVSSASTKGPSVFPLAPCSRSTSESTAALGCLVKDYFPEPVTVSWNSGALTSGVHTFPAVLQSSGLYSLSSVVTVPSSNFGTQTYTCNVDHKPSNTKVDKTVERKSCVECPPCPAPPVAGPSVFLFPPKPKDTLMISRTPEVTCVVVDVSHEDPEVQFNWYVDGVEVHNAKTKPREEQFNSTFRVVSVLTVVHQDWLNGKEYKCKVSNKGLPAPIEKTISKTKGQPREPQVYTLPPSREEMTKNQVSLTCLVKGFYPSDIAVEWESNGQPENNYKTTPPMLDSDGSFFLYSKLTVDKSRWQQGNVFSCSVMHEALHNHYTQKSLSLSPG
light: not shown
notes: also called CD73.4-IgG2CS; CD73.4-IgG2.3

Columns and labels:
human CD73 on cells [1] = target: T1, human CD73 on cells; experiment: cell-based or functional assay
hCD73-his [2] = target: T2, hCD73-his; experiment: SEC of equimolar mAb + hCD73-his
Description: (§1) The oligomeric state of CD73/antibody complexes were examined by size-exclusion chromatography coupled to an in-line multi-angle light scattering detector (SEC-MALS). Isocratic separations were performed on a Shodex PROTEIN KW-803 column connected to an Prominence Shimadzu UFLC in buffer containing 200 mM K₂HPO₄, 150 mM NaCl, pH 6.8, containing 0.02% Na azide (0.1 μm filtered) running at 0.5 mL/min. Samples were injected onto the column using a SIL-20AC Prominence Shimadzu® autosampler, and data were obtained from three online detectors connected in series: a Prominence SPD-20AD diode array UV/vis spectrophotometer followed by a Wyatt miniDAWN™ TREOS Multi-Angle Light Scattering Detector then a Wyatt Optilab T-rEX Refractive Index Detector® instrument. Data were collected and analyzed using Astra® (Wyatt) and Labsolutions® (Shimadzu) software.
CD73.4 antibodies having the heavy chain constant regions set forth in Table 14 were also tested for formation of high molecular weight complexes by SEC-MALS and DLS experiments, as described in Example 3.

N-hCD73-his = target: T3, N-hCD73-his; experiment: SPR, mAb captured on protein A
Description: The affinity of the antibodies for human CD73 was measured to determine whether the change of the constant region affects them. The affinities were determined by Surface Plasmon Resonance (SPR) as follows. […] For these experiments, protein A (Pierce) was immobilized to a density of 3000-4000 RU on flow cells 1˜4 of a CMS sensor chip (GE Healthcare) using standard ethyl(dimethylaminopropyl) carbodiimide (EDC)/N-hydroxysuccinimide (NHS) chemistry, with ethanolamine blocking, in a running buffer of 0.01 M HEPES pH 7.4, 0.15 M NaCl, 3 mM EDTA, 0.005% v/v tween 20. […] The running buffer for the kinetic experiments was 10 mM sodium phosphate, 130 mM sodium chloride, 0.05% tween 20, pH 7.1. The surfaces were regenerated after each cycle using two 30 s pulses of 10 mM glycine pH 1.5 at a flow rate of 30 μl/min. Sensogram data was double-referenced and then fitted to a 1:1 Langmuir model using Biacore® T100 evaluation software v2.0.4, to determine the association rate constant (ka), the dissociation rate constant (kd), and the equilibrium dissociation constant (KD).

human CD73 on cells [3] = target: T1, human CD73 on cells; experiment: cell-based or functional assay; remark: listed apart in the source
human CD73 on cells [4] = target: T1, human CD73 on cells; experiment: cell-based or functional assay; remark: listed apart in the source
hCD73-his [5] = target: T2, hCD73-his; experiment: SEC-MALS, target:mAb 1:1, 2.5 uM + 2.5 uM
Description: The structure and oligomeric state of CD73/antibody complexes in solution were examined by SEC-MALS and DLS.
as §1

human CD73 on cells [6] = target: T1, human CD73 on cells; experiment: cell-based or functional assay; remark: listed apart in the source

| Binder | internalization T1/2, Calu6 (human CD73 on cells [1]) | internalization T1/2, NCI-H292 (human CD73 on cells [1]) | internalization Ymax, Calu6 (human CD73 on cells [1]) | internalization Ymax, NCI-H292 (human CD73 on cells [1]) | also measured |
| --- | --- | --- | --- | --- | --- |
| B1 | 17 min | 15.4 min | 76% | 90.8% |  |
| B2 | 23.8 min | 16.8 min | 81.6% | 91.6% |  |
| B3 | 20.9 min | 18.3 min | 79% | 89.6% |  |
| B4 | 21.2 min | 18 min | 79.6% | 90.9% |  |
| B5 | 21.3 min | 17.6 min | 81.2% | 91.4% | UV % Peak1 (<12.9 min) (hCD73-his [2]): 30.6%; UV % Peak4 (16.7-19.3 min) (hCD73-his [2]): 33.7%; UV % Peak5 (>19.3 min) (hCD73-his [2]): 3.2% |
| B6 | 17.2 min | 15.4 min | 80.2% | 89.6% |  |
| B7 | 20.1 min | 16.3 min | 81.7% | 91.6% |  |
| B8 |  |  |  |  | Kd (N-hCD73-his): 1600 pM and 560 pM; koff (N-hCD73-his): 0.00042 s⁻¹ and 0.00016 s⁻¹; kon (N-hCD73-his): 260000 M⁻¹ s⁻¹ and 290000 M⁻¹ s⁻¹; internalization EC50, Calu6 cells, 2 h (human CD73 on cells [3]): 580 pM; internalization Ymax (% of 100 nM 11F11), Calu6 cells (human CD73 on cells [3]): 98% |
| B9 |  |  |  |  | UV % Peak1 (<12.9 min) (hCD73-his [2]): 37%; UV % Peak3 (15.1-16.7 min) (hCD73-his [2]): 7.7%; UV % Peak4 (16.7-19.3 min) (hCD73-his [2]): 28.6%; UV % Peak5 (>19.3 min) (hCD73-his [2]): 2.9%; % internalization, Calu6 cells (human CD73 on cells [4]): 88%; % internalization, H228 cells (human CD73 on cells [4]): 94%; % internalization, H2030 cells (human CD73 on cells [4]): 89%; % internalization, HCC15 cells (human CD73 on cells [4]): 94%; internalization T1/2, Calu6 cells (human CD73 on cells [4]): 6.5 min; internalization T1/2, H228 cells (human CD73 on cells [4]): 13.8 min; internalization T1/2, H2030 cells (human CD73 on cells [4]): 3.7 min; internalization T1/2, HCC15 cells (human CD73 on cells [4]): 3.1 min; MW Peak 1 (hCD73-his [5]): 3400 kDa; MW Peak 2 (hCD73-his [5]): 970 kDa; MW Peak 3 (hCD73-his [5]): 480 kDa; internalization T1/2, Calu6 (human CD73 on cells [6]): 36 min; internalization T1/2, NCI-H292 (human CD73 on cells [6]): 16.6 min; internalization Ymax, Calu6 (human CD73 on cells [6]): 75.6%; internalization Ymax, NCI-H292 (human CD73 on cells [6]): 78.4% |

Reference: patent US20240141059A1 (Bristol-Myers Squibb, published 2024)
